Our source for the EpiScan MFI and % Peptide Exchange values is US20230035859A1, “COMPOSITIONS AND METHODS FOR EPITOPE SCANNING” (priority 2019, published 2023).

Assay [1] addresses QuickSwitch Quant HLA-A*02:01 Tetramers (PE or APC labeled) (MBL International), A*02:0. In words: QuickSwitch Quant tetramer control peptide exchange.

On to SLPGVFCGV (modifications not checked), for which the EpiScan MFI in the assay with HLA-A*02:01 (human) was 6.42. The molecule further gave a % Peptide Exchange in assay [1] of 98%.
For VLYQDVNCTEV (modifications not checked), in that order: 5.6 and 97.9%.
VMAYITGGV (modifications not checked) yielded an EpiScan MFI with HLA-A*02:01 (human) of 4.53. For the same molecule, in assay [1], the % Peptide Exchange came out at 99.1%.
In the case of TLATHGLAAV (modifications not checked), the EpiScan MFI in the assay with HLA-A*02:01 (human) is 4.04. Moreover, the % Peptide Exchange in assay [1] stood at 98%.
For VMVELVAEL (modifications not checked), in that order: 5.34 and 98.6%.
In the assay with HLA-A*02:01 (human), AMDEFIERYKL (modifications not checked) displayed an EpiScan MFI of 2.35. In assay [1], this molecule returned a % Peptide Exchange of 96.9%.
The matching figures for YIDIGNYTV (modifications not checked): 4.42 and 97.9%.
The matching figures for VMAYITGGVV (modifications not checked): 4.64 and 99.1%.
